{
  "source": "patent US20260125649A1",
  "about": "“MEDIUM COMPOSITION AND METHOD FOR CULTURING MESENCHYMAL STEM CELLS” (ACADEMIA SINICA, priority 2018, published 2026)",
  "molecules": {"B1": {"name": "EpEX: extracellular domain of human EpCAM, 265 amino acids in length (SEQ ID NO: 2) (protein, listed as Homo sapiens)", "chain": "MAPPQVLAFGLLLAAATATFAAAQEECVCENYKLAVNCFVNNNRQCQCTSVGAQNTVICSKLAAKCLVMKAEMNGSKLGRRAKPEGALQNNDGLYDPDCDESGLFKAKQCNGTSMCWCVNTAGVRRTDKDTEITCSERVRTYWIIIELKHKAREKPYDSKSLRTALQKEITTRYQLDPKFITSILYENNVITIDLVQNSSQKTQNDVDIADVAYYFEKDVKGESLFHSKKMDLTVNGEQLDLDPGQTLIYYVDEKAPEFSMQGLK"}},
  "key": {"[1]": {"system": "TACE (Ser435), PS2 (Ser327), ERK1/2", "experiment": "Western blotting of phosphorylation of TACE, Presenilin 2 and ERK1/2", "type": "cell-based, human", "description": "FIG. 9. EpEX induces the phosphorylation and activity of TACE and γ-secretase. MSCs were stimulated by EpEX for the indicated times, and the activity of TACE and γ-secretase were detected. MSCs were stimulated by EpEX (3 μg/mL) for the indicated times. Western blot analysis was performed to detect the phosphorylation of TACE and Presenilin 2.\nFIG. 10. EpEX and EGF induce the phosphorylation of TACE, ERK1/2 and PS2. MSCs were treated with either EGF, EpEX, or co-treated with EGF and EpEX for 5 min. The phosphorylation of ERK1/2 was examined by Western blotting with specific antibodies. […] The phosphorylation of ERK1/2, TACE (Ser435), PS2 (Ser327) were examined by Western blotting with specific antibodies.\nWestern blotting was performed as previously described (Takahashi et al., 2003). Cells were lysed in lysis buffer (150 mM NaCl, 50 mM Tris-HCl (pH 7.4), 1% Nonidet P-40), containing a protease inhibitor mix (Roche Applied Science). Nuclear fractions and cytoplasmic fractions were separated by the Nuclear/Cytosol Fractionation Kit according to the manufacturer's instructions (BioVision Inc., Milpitas, CA, USA). Protein samples were separated by SDS-PAGE under denaturing conditions, and transferred to a PVDF membrane (Millipore). To probe for pluripotency markers, membranes were incubated with the indicated antibodies against Oct4 (1:1000, Abcam, Cambridge, UK), Nanog (1:1000, Genetex), Lin28 (1:1000, Genetex) or Sox2 (1:1000, Genetex). The CDK and cyclin antibodies were from the CDK and Cyclin Antibody Sampler Kits (Cell Signalling Technology, #9868 and #9869 respectively), including antibodies against cylin D1, D2, E1, and CDK4, CDK9 (1:1000). EpCAM (1:1000, Genetex), phospho-EGFR (1:1000, Cell signaling), EGFR (1:1000, Cell signaling), HMGA2 (1:1000, Cell signaling) or GAPDH (1:10000, Abcam) were also used. After incubation with primary antibody, the membranes were incubated with horseradish peroxidase (HRP)-conjugated secondary antibodies, goat anti-mouse IgG (1:3000, Santa Cruz, CA) or goat anti-rabbit IgG (1:3000, Santa Cruz, CA). […]"}, "[2]": {"system": "EpICD binding to the Oct4 promoter", "experiment": "ChIP of EpICD binding to the Oct4 promoter", "type": "cell-based, human", "details": "EpEX 3 μg/mL, ChIP-qPCR", "description": "FIG. 12. EpEX increases the binding of EpICD to the promoter of Oct4 by inhibiting let7. (A) MSCs were transfected with let7 inhibitor or mimetics then treated with EpEX (3 μg/mL). Binding of EpICD to the Oct4 promoter was examined by chromatin immunoprecipitation (ChIP). EpICD was pulled down by a specific anti-EpICD antibody. The cross-linked DNA was isolated and then probed by qPCR with specific primers for the Oct4 promoter. (B) MSCs were transfected with let7 inhibitor or mimetics then treated with EpEX (3 μg/mL). Binding of EpICD-HMGA2 was examined by sequential ChIP. EpICD was pulled down by a specific anti-EpICD antibody, followed by pull-down with a HMGA2 antibody. To detect bound Oct4 promoter, the cross-linked DNA was isolated and then amplified by qPCR with specific primers.\nWe performed chromatin immunoprecipitation (ChIP) with the Pierce™ Magnetic ChIP Kit (Thermo Fisher Scientific), to according the manufacturer's instructions. In brief, the protein-DNA complexes were cross-linked with 1% formaldehyde and quenched by adding glycine to a final concentration of 200 mM. […]\nThe immunoprecipitated DNA was recovered by a PCR purification kit (Thermo Fisher Scientific), and the purified DNA was subjected to real time quantitative PCR for further analysis. Immunoprecipitation/input was calculated for each gene and each gene was further normalized to the level of mouse β-actin promoter. […]"}},
  "data": [
    {"molecule": "B1", "values": [
      {"measurement": "phosphorylation of TACE", "setting": "[1]; EpEX 3 μg/mL", "result": "induced"},
      {"measurement": "phosphorylation of γ-secretase (Presenilin 2)", "setting": "[1]; EpEX 3 μg/mL", "result": "induced"},
      {"measurement": "phosphorylation of ERK1/2", "setting": "[1]; EpEX, EGFR-dependent", "result": "can induce"},
      {"measurement": "binding of EpICD to the promoter of Oct4", "setting": "[2]", "result": "increases"}
    ]}
  ]
}
